# “And” between values parts separate entries of the source, which are not always exact repeats. Identical values can stand only once.
# Experiments:
# [1] = molecular target: Full-length VEX1 tagged with 12xmyc at the C-terminus at the native locus (Trypanosoma brucei); experiment: SEC; trypanosome extracts (1% CHAPS in PBS, micrococcal nuclease treated) on a BioBasic SEC 1000 column at 5 °C, elution in 0.3% CHAPS in PBS; fractions analysed by anti-myc protein blot; calibrated with thyroglobulin, ferritin, BSA and myoglobin
# [2] = molecular target: VSG exclusion factor 1 (VEX1), full length, with a C-terminal 12xmyc tag at the native locus (T. brucei); experiment: native gel or EMSA; blue native PAGE (3-12% gradient, 4 °C) of digitonin lysates treated with micrococcal nuclease, blotted for the myc-tagged protein; with and without knockdown of VEX1, VEX2 or CAF-1
# [3] = molecular target: VSG exclusion factor 2 (VEX2) with an N-terminal 6x c-myc tag, tagged at the native locus (T. brucei); experiment: as above
substance,measurement,setting,value
Full-length VEX1 tagged with 12xmyc at the C-terminus at the native locus (natural protein),stoichiometry N,[1],2
"VSG exclusion factor 1 (VEX1), full length, with a C-terminal 12xmyc tag at the native locus (natural protein)",stoichiometry N,[2],2
"VSG exclusion factor 2 (VEX2) with an N-terminal 6x c-myc tag, tagged at the native locus (natural protein)",stoichiometry N,[3],2 and 6
